Substitutions are numbered along the chain they refer to. Numbers in names are those of the source.

Test [1] concerns the target T1, recombinant human IL-6 (human, UniProt P05231 30-212).
T1 construct: bought protein; also called interleukin-6
In words: Biacore at 37 C, antibody captured on Protein A, IL-6 as analyte.
T1 sequence (P05231 30-212 limits assumed): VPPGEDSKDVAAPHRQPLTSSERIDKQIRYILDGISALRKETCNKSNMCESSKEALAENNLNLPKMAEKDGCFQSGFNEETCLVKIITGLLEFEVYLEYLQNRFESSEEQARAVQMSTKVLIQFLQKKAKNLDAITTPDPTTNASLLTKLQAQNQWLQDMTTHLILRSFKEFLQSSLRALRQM

The target of test [2] is T1, recombinant human IL-6. In words: Biacore, antibody captured on Protein A, IL-6 as analyte. The protocol: Antibodies were captured on a Protein A chip (GE) by injecting 1:20 cell supernatant dilutions at 10 μL/min for 60 seconds. […] The sensor chip was regenerated by a 60 seconds injection of 10 mM Glycine pH 1.7 at the flow rate of […]. […] For this setup, 1 μg/mL of purified antibody was injected over a Protein A chip at 10 μL/min for 25 seconds. […] The sensor chip was regenerated by a 60 seconds injection of 10 mM Glycine pH 1.7 at flow rate of 50 μL/min. Data analysis for supernatant and purified samples were performed using BIAevaluation software (GE). All sensorgrams were double reference subtracted and fit using a 1:1 Langmuir binding model.

Test [3] has as its target VEGF (UniProt P15692-4 27-191, limits assumed). The test can be described thus: cell-based or functional assay.
The target in test [4] is T2, recombinant human IL-6 (human, UniProt P05231 30-212).
T2 construct: Analyte in the Biacore assays; also called interleukin-6
In words: SPR Biacore, cell supernatant dual inhibitor captured on Protein A, IL-6 analyte, 25 C.
T2 sequence (P05231 30-212 limits assumed): as above

The target in test [5] is T2, recombinant human IL-6. In words: SPR Biacore, purified dual inhibitor captured on Protein A, IL-6 analyte, 37 C.

Chain of VEGF (P15692 other isoform, or with tags, fused parts or gaps limits assumed): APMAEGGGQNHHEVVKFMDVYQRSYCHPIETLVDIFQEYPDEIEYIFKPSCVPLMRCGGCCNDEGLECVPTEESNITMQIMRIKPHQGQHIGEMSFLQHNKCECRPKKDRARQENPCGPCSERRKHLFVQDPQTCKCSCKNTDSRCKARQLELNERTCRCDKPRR

B1: anti-IL-6 antibody, heavy chain S35H, G66D, light chain M32L/M50D/N52S/M88Q (antibody, human IgG1, V domains shown)
VH: EVQLVESGGGLVQPGGSLRLSCAASGFTFSPFAMHWVRQAPGKGLEWVAKISPGGSWTYYSDTVTDRFTFSLDTSKSTAYLQMNSLRAEDTAVYYCARQLWGYYALDIWGQGTLVTVSS
VL: DIQLTQSPSSLSASVGDRVTITCSASISVSYLYWYQQKPGKAPKLLIYDDSSLASGVPSRFSGSGSGTDFTLTISSLQPEDFATYYCQQWSGYPYTFGQGTKVEIK
notes: engineered human IgG1 as m23; also called S35H G66D double mutant with mutagenized light chain
On to B1, for which the “fold increase in affinity relative to the wild-type heavy chain” value in test [1] was around 1.3 fold.

B2: anti-IL-6 antibody, heavy chain variant II (M34W/G66D/I108V), light chain variant IV (M32L/M50A/N52S/M88Q) (antibody, human IgG1, V domains shown)
VH: B1 VH with M34W, H35S, I108V
VL: B1 VL with D50A
notes: engineered human IgG1; also called II/IV
For B2, the binding result in test [2] is “binds”.

B3: anti-IL-6 antibody, heavy chain S35H, G66D, light chain wild-type (antibody, human IgG1, V domains shown)
VH: B1 VH
VL: B1 VL with L32M, D50M, S52N, Q88M
notes: engineered human IgG1 as m23; also called S35H G66D double mutant
In the case of B3, the “fold increase in affinity relative to the wild-type heavy chain” value in test [1] is around 2 fold.

B4: anti-IL-6 antibody, heavy chain variant I (M34I/G66D/I108V), light chain variant V (M32L/M50D/M88Q) (antibody, human IgG1, V domains shown)
VH: B1 VH with M34I, H35S, I108V
VL: B1 VL with S52N
notes: engineered human IgG1; also called I/V
Consider B4, for which, in test [2], the binding result is recorded as “binds”.

B5: anti-IL-6 antibody, heavy chain variant I (M34I/G66D/I108V), light chain variant IV (M32L/M50A/N52S/M88Q) (antibody, human IgG1, V domains shown)
VH: B1 VH with M34I, H35S, I108V
VL: B1 VL with D50A
notes: engineered human IgG1; also called I/IV
On to B5, for which the binding result in test [2] is on record as “binds”.

B6: anti-IL-6 antibody, heavy chain variant II (M34W/G66D/I108V), light chain variant III (M32L/M50D/N52S/M88Q) (antibody, human IgG1, V domains shown)
VH: B1 VH with M34W, H35S, I108V
VL: B1 VL
notes: engineered human IgG1; also called II/III
For B6, in test [2], the binding result is reported as “binds”.

B7: anti-IL-6 antibody, heavy chain variant II (M34W/G66D/I108V), light chain variant V (M32L/M50D/M88Q) (antibody, human IgG1, V domains shown)
VH: B1 VH with M34W, H35S, I108V
VL: B1 VL with S52N
notes: engineered human IgG1; also called II/V
For B7, in test [2], the binding result is “binds”.

B8: VEGFR-AntiIL6 (heavy chain of sequences 1A-2A-3H, light chain of sequence 4A) (bispecific antibody)
fusion: SDTGRPFVEMYSEIPEIIHMTEGRELVIPCRVTSPNITVTLKKFPLDTLIPDGKRIIWDSRKGFIISNATYKEIGLLTCEATVNGHLYKTNYLTHRQTNTIIDVVLSPSHGIELSVGEKLVLNCTARTELNVGIDFNWEYPSSKHQHKKLVNRDLKTQSGSEMKKFLSTLTIDGVTRSDQGLYTCAASSGLMTKKNSTFVRVHEKGGGGSGGGGSEVQLVESGGGLVQPGGSLRLSCAASGFTFSPFAISWVRQAPGKGLEWVAKISPGGSWTYYSDTVTDRFTFSLDTSKSTAYLQMNSLRAEDTAVYYCARQLWGYYALDVWGQGTLVTVSSASTKGPSVFPLAPSSKSTSGGTAALGCLVKDYFPEPVTVSWNSGALTSGVHTFPAVLQSSGLYSLSSVVTVPSSSLGTQTYICNVNHKPSNTKVDKKVEPKSCDKTHTCPPCPAPEAAGAPSVFLFPPKPKDTLMISRTPEVTCVVVDVSHEDPEVKFNWYVDGVEVHNAKTKPREEQYNSTYRVVSVLTVLHQDWLNGKEYKCKVSNKALPAPIEKTISKAKGQPREPQVYTLPPSREEMTKNQVSLTCLVKGFYPSDIAVEWESNGQPENNYKTTPPVLDSDGSFFLYSKLTVDKSRWQQGNVFSCSVMHEALHNHYTQKSLSCSPGK
light: DIQLTQSPSSLSASVGDRVTITCSASISVSYLYWYQQKPGKAPKLLIYDDSSLASGVPSRFSGSGSGTDFTLTISSLQPEDFATYYCQQWSGYPYTFGQGTKVEIKRTVAAPSVFIFPPSDEQLKSGTASVVCLLNNFYPREAKVQWKVDNALQSGNSQESVTEQDSKDSTYSLSSTLTLSKADYEKHKVYACEVTHQGLSSPVTKSFNRGEC
In the case of B8, the “cell-based VEGF stimulated VEGFR reporter assay (KDR/VEGF HEK293 cells, luminescence), IC50” value in test [3] is 0.18 nM.

B9: dual inhibitor variant L of Table 2.1 (AntiIL-6-VEGF Trap) (other)
heavy: EVQLVESGGGLVQPGGSLRLSCAASGFTFSPFAWSWVRQAPGKGLEWVAKISPGGSWTYYSDTVTDRFTFSLDTSKSTAYLQMNSLRAEDTAVYYCARQLWGYYALDVWGQGTLVTVSSASTKGPSVFPLAPSSKSTSGGTAALGCLVKDYFPEPVTVSWNSGALTSGVHTFPAVLQSSGLYSLSSVVTVPSSSLGTQTYICNVNHKPSNTKVDKKVEPKSCGGGGSGGGGSSDTGRPFVEMYSEIPEIIHMTEGRELVIPCRVTSPNITVTLKKFPLDTLIPDGKRIIWDSRKGFIISNATYKEIGLLTCEATVNGHLYKTNYLTHRQTNTIIDVVLSPSHGIELSVGEKLVLNCTARTELNVGIDFNWEYPSSKHQHKKLVNRDLKTQSGSEMKKFLSTLTIDGVTRSDQGLYTCAASSGLMTKKNSTFVRVHEKDKTHTCPPCPAPEAAGAPSVFLFPPKPKDTLMISRTPEVTCVVVDVSHEDPEVKFNWYVDGVEVHNAKTKPREEQYNSTYRVVSVLTVLHQDWLNGKEYKCKVSNKALPAPIEKTISKAKGQPREPQVYTLPPSREEMTKNQVSLTCLVKGFYPSDIAVEWESNGQPENNYKTTPPVLDSDGSFFLYSKLTVDKSRWQQGNVFSCSVMHEALHNHYTQKSLSCSPGK
light: B8 light with S52N
notes: Antibody-VEGF trap fusion, trap between Fab and Fc of the heavy chain (VH variant II); also called molecule L
B9: in test [4], the Kd stood at 0.239 nM, the koff amounted to 0.000169 s⁻¹ and the kon was 705000 M⁻¹ s⁻¹. Moreover, in test [5], the dissociation constant (Kd) was 0.436 nM, the off-rate (koff) amounted to 0.00065 s⁻¹ and the kon stood at 1.49e+06 M⁻¹ s⁻¹.

The values above are taken from patent US20240368267A1 (KODIAK SCIENCES, published 2024).
